Residue numbers refer to the chain shown, from its start. Names may count otherwise. One block for each binder: values may come before it.
Columns and labels:
[1] = biological target: T1, human PD-1-Fc (R and D systems, Minneapolis, Minn.) (human, UniProt Q15116 25-167); test: plate ELISA on human PD-1-Fc
T1 construct: bought; also called hPD-1-Fc; hPD-1; not shown: Fc part of the bought fusion

[2] = biological target: T1, human PD-1-Fc (R and D systems, …); test: plate ELISA on adsorbed human PD-1-Fc, single site saturation fit
[3] = biological target: T1, human PD-1-Fc (R and D systems, …); test: inhibition ELISA on human PD-1-Fc; competitor 2 nM biotinylated PDL2 (hPDL2/Fc)
[4] = biological target: T1, human PD-1-Fc (R and D systems, …); test: inhibition ELISA on human PD-1-Fc; competitor 2 nM biotinylated PD-L1 (hPDL1/Fc)
[5] = biological target: T1, human PD-1-Fc (R and D systems, …); test: plate ELISA on human PD-1-Fc; reference A1.4
[6] = biological target: T2, mouse PD-1 expressed on HEK293 cells (mouse, UniProt Q02242 25-288); test: flow cytometry on mPD-1 HEK293 cells, titration from 150 nM
T2 construct: whole, on cells; also called HEK293-mPD-1; mPD-1 HEK293 cells
T2 sequence (looked up): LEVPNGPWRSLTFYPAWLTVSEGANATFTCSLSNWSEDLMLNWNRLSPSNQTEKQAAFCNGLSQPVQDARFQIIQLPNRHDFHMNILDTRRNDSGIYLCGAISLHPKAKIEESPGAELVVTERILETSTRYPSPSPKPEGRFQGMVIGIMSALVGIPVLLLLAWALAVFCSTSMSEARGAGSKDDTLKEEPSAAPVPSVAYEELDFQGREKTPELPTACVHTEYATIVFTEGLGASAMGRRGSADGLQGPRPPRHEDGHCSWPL

[7] = biological target: T1, human PD-1-Fc (R and D systems, …); test: plate ELISA on human PD-1-Fc; apparent KD
[8] = biological target: T1, human PD-1-Fc (R and D systems, …); test: plate ELISA on human PD-1-Fc; reference A1.5
[9] = biological target: T1, human PD-1-Fc (R and D systems, …); test: plate ELISA on human PD-1-Fc; reference A1.5; remark: listed apart in the source

T1 sequence (Q15116 25-167 limits assumed): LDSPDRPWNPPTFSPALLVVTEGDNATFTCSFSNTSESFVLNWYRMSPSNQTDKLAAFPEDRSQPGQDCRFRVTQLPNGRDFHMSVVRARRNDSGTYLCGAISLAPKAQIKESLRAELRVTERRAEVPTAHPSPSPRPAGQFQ

Kd [2]: 0.19 nM
IC50 [3]: 2 nM
IC50 [4]: 3.3 nM
B3: m136-M13-MHC723 (antibody, V domains shown)
VH: EVKLVESGGGLVKPGGSLKLSCAASGFTFSGYAMSWVRQTPAKRLEWVAYISNSGGNAHYPDSVKGRFTISRDNAKNTLYLQMSSLRSEDTAMYYCTREDYGTSPFVYWGQGTLVTVSA
VL: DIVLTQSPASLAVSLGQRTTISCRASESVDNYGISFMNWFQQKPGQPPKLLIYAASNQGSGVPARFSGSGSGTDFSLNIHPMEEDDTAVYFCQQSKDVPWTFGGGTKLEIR
notes: mouse hybridoma antibody, mIgG1/K

binding result [1]: binds
B4: Bb2 (antibody, human IgG4 S228P, kappa, V domains shown)
VH: QVQLVQSGAEVKKPGASVKMSCKASGYTFTDYYMDWVRQAPGQGLEWIGYIYPKNGGSSYAQKFQGRATLTVDKSTSTAYMELSSLRSEDTAVYYCARKVVATDYWGQGTLLTVSS
VL: DIQMTQSPSSLSASVGDRVTMTCKSSQSLLYSSNQKNYLAWYQQKPGKAPKLLIFWASIRESGVPSRFSGSGSGTDFTLTISSVQPEDFATYYCQQSDSYPWTFGQGTKLEIKR
notes: humanized, full length hIgG4/hKappa

binding result [6]: binds
B8: J43v2 mIgG2a (antibody, V domains shown)
VH: EVRLLESGGGLVKPEGSLKLSCVASGFTFSDYFMSWVRQAPGKGLEWVAHIYTKSYNYATYYSGSVKGRFTISRDDSRSMVYLQMNNLRTEDTATYYCTRDGSGYPSLDFWGQGTQVTVSS
VL: YELTQPPSASVNVGETVKITCSGDQLPKYFADWFHQRSDQTILQVIYDDNKRPSGIPERISGSSSGTTATLTIRDVRAEDEGDYYCFSGYVDSDSKLYVFGSGTQLTVLG
notes: also called J43 m2a; J43v2 m2a

Kd [2]: 0.23 nM
B10: m136-M19-MHC725 (antibody, V domains shown)
VH: EVQLQQSGPELVKPGDSVKMSCKASGYTFTDYYMDWVKQSHGKSLEWIGYIYPKNGGSSYNQKFKGKATLTVDKSSSTAYMELHSLTSEDSAVYYCARKVVATDYWGQGTTLTVSS
VL: DIVMSQSPSSLAVSVGEKVTMSCKSSQSLLYSSNQKNYLAWYQQKPGQSPKLLIFWASIRESGVPDRFTGSGSGTDFTLTISSVKAEDRAVYYCQQCDSYPWTFGGGTKLEIK
notes: mouse hybridoma antibody, mIgG2b/K

binding result [1]: binds
B13: C1.1 (antibody, human IgG4 S228P, kappa, V domains shown)
VH: EVQLVESGGGLVQPGGSLRLSCAASGFTFSNYAMSWVRQAPGKGLEWVAYISNGGGDTHYADSLKGRFTVSRDNSKNTLYLQMNSLRAEDTAVYYCARENYGTSPFVYWGQGTLVTVSS
VL: DIQLTQSPSSLSVSVGDRATITCRASESVDNYGISFMNWFQQKPGKAPKLLIYAASNQGSGVPSRFSGSGSGTDFTLTISSMQPEDFATYYCQQSKDVPWTFGQGTKLEIKR
notes: as for B4

binding result [1]: binds
B14: A1.6 (antibody, human IgG4 S228P, kappa, V domains shown)
VH: B13 VH with N31G, G54S, D57N, T58A, L64V, V70I, A97T, N100D
VL: B13 VL with V13A, A19V, N57D
notes: as for B4

binding result [1]: binds
B15: A1.2 (antibody, human IgG4 S228P, kappa, V domains shown)
VH: B13 VH with N31G, G54S, D57N, T58A, L64V, V70I, A97T, N100D
VL: B13 VL with V13A, A19V, N31Q
notes: as for B4

binding result [1]: binds
B16: A1.4 (antibody, human IgG4 S228P, kappa)
heavy: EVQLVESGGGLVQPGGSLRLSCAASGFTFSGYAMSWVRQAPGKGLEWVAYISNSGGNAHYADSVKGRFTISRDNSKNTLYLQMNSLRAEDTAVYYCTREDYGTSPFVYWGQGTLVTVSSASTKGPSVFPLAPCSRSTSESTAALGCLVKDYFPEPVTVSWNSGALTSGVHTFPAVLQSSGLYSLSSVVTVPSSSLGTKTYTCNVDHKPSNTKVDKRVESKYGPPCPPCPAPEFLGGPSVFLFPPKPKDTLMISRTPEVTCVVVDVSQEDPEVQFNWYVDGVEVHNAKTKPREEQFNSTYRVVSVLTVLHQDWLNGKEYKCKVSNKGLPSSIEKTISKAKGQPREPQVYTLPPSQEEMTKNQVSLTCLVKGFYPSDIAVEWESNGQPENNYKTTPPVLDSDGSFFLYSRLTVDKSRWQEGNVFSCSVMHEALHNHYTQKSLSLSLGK
light: DIQLTQSPSSLSASVGDRVTITCRASESVDSYGISFMNWFQQKPGKAPKLLIYAASNQGSGVPSRFSGSGSGTDFTLTISSMQPEDFATYYCQQSKDVPWTFGQGTKLEIKRTVAAPSVFIFPPSDEQLKSGTASVVCLLNNFYPREAKVQWKVDNALQSGNSQESVTEQDSKDSTYSLSSTLTLSKADYEKHKVYACEVTHQGLSSPVTKSFNRGEC
notes: humanized, full length hIgG4/hKappa; also called anti-PD-1 A1.4; DyLight-650 A1.4

Kd [2]: 0.34 nM
B19: m245-M5-MHC729 (antibody, V domains shown)
VH: EVQLVESGGGLVKSGGSLKLSCAHSGFSFSSYDMSWVRQTPAKRLEWVATISGGGRYTYYPDSVKGRFTISRDNAKNTLYLQMSGLRSEDTAMYYCASNYYGFDYWGQGTTLTVSS
VL: DIVMTQSHKFMSTSVGDRVSITCKASQDVGTAVAWYQQKPGQSPKLLIYWASTRHTGVPDRFTGSGSGTDFTLTISNVQSEDLADYFCQQYSSYPWTFGGGTKLEIK
notes: as for B3

Kd [2]: 0.19 nM
IC50 [3]: 2.8 nM
IC50 [4]: 4.8 nM
B20: m136-M14-MHC724 (antibody, V domains shown)
VH: KVMLVESGGDLVKPGGSLKLSCAASGFTFSSYGMSWVRQTPEKRLEWVATISGGGRDIYYADTVKGRFTISRDNAKNTLYLQMSSLRSEDTALYFCARLYLGFDYWGQGTTLTVSS
VL: DIQMTQSPASQSASLGESVTITCLASQTIGTWLAWYQQKPGKSPQLLIYAATSLADGVPSRFSGSGSGTKFSFKISSLQAEDFVSYYCQQLYSIPWTFGGGTKLEIK
notes: mouse hybridoma antibody, mIgG2a/K

The next lines start with the binder.

B1: D4 (antibody, human IgG4 S228P, kappa, V domains shown)
VH: EVQLVESGGGLVQPGGSLRLSCAHSGFSFSSYDMSWVRQAPGKGLEWVATISGGGRYTYYADSVKGRFTISRDNSKNTLYLQMNSLRAEDTAVYYCASNYYGFDYWGQGTLLTVSS
VL: DIQMTQSPSSLSASVGDRVTITCKASQDVGTAVAWYQQKPGKAPKLLIYWASTRHTGVPSRFSGSGSGTDFTLTISSVQPEDFATYYCQQYSSYPWTFGQGTKLEIKR
notes: as for B4
binding result [1]: binds

B2: m245-M3-MHC728 (antibody, V domains shown)
VH: B3 VH with G31N, S54G, N57D, A58T, V64L, I70V, R87K, T97A, D100N
VL: not shown
notes: as for B20
Kd [2]: 0.22 nM

B5: PD-1 1.4 PD003 2001 (antibody, human IgG4 S228P, kappa)
heavy: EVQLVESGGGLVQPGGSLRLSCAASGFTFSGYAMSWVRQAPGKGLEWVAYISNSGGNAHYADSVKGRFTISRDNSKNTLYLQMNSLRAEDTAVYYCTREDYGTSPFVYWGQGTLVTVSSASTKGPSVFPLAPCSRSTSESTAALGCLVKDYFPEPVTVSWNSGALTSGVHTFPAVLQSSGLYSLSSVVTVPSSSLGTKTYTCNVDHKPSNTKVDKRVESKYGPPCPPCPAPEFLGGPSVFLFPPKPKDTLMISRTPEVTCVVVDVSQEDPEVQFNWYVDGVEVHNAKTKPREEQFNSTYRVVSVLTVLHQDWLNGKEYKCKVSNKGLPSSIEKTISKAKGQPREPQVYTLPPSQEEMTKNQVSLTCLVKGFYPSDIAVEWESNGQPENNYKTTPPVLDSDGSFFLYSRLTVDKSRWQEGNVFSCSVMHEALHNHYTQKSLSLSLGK
light: QGQSGQGLVCPLYALSSGVCMGGGGSSGGSISSGLLSGRSDNHGGGSDIQLTQSPSSLSASVGDRVTITCRASESVDSYGISFMNWFQQKPGKAPKLLIYAASNQGSGVPSRFSGSGSGTDFTLTISSMQPEDFATYYCQQSKDVPWTFGQGTKLEIKRTVAAPSVFIFPPSDEQLKSGTASVVCLLNNFYPREAKVQWKVDNALQSGNSQESVTEQDSKDSTYSLSSTLTLSKADYEKHKVYACEVTHQGLSSPVTKSFNRGEC
notes: also called PD03 (A1.4)
ME (masking efficiency, Kd of the activatable antibody divided by Kd of the parental antibody) [5]: 5

B6: PD-1 1.4 PD010 2001 (antibody, human IgG4 S228P, kappa)
heavy: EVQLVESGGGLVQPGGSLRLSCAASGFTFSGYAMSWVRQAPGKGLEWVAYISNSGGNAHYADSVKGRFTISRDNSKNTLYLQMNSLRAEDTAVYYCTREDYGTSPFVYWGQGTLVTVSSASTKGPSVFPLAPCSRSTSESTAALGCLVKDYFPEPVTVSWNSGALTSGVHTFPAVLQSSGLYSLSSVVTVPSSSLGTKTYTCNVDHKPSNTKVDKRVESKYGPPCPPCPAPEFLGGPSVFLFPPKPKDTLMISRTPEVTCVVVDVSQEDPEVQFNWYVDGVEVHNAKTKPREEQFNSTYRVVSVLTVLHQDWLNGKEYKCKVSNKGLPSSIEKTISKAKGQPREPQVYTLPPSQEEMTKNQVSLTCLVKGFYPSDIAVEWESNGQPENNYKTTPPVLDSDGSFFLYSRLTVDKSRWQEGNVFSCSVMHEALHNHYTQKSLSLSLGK
light: B5 light with L8G, V9L, P11S, L12W, A14L, L15S, V19L, M21V, G22D
notes: also called PD-10 (A1.4); PD10 (A1.4)
ME (masking efficiency, Kd of the activatable antibody divided by Kd of the parental antibody) [5]: 13

B7: PD-1 1.4 PD008 2001 (antibody, human IgG4 S228P, kappa)
heavy: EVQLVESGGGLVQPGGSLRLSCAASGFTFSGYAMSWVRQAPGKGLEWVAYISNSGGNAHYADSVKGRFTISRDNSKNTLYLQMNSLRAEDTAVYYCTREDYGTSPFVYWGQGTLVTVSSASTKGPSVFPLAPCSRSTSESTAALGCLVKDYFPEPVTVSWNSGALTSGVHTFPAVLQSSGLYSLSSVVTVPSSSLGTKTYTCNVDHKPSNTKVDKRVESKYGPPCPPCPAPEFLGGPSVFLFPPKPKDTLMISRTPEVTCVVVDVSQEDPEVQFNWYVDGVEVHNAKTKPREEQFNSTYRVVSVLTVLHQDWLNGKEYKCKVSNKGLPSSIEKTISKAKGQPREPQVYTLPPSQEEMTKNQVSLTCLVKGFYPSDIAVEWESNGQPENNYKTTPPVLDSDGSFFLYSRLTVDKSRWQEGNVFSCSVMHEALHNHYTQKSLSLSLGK
light: B5 light with L8E, V9T, P11N, L12Q, A14E, L15R, V19L, M21F, G22A
notes: also called PD08 (A1.4)
ME (masking efficiency, Kd of the activatable antibody divided by Kd of the parental antibody) [5]: 13

B9: PD-1 1.4 PD002 2001 (antibody, human IgG4 S228P, kappa)
heavy: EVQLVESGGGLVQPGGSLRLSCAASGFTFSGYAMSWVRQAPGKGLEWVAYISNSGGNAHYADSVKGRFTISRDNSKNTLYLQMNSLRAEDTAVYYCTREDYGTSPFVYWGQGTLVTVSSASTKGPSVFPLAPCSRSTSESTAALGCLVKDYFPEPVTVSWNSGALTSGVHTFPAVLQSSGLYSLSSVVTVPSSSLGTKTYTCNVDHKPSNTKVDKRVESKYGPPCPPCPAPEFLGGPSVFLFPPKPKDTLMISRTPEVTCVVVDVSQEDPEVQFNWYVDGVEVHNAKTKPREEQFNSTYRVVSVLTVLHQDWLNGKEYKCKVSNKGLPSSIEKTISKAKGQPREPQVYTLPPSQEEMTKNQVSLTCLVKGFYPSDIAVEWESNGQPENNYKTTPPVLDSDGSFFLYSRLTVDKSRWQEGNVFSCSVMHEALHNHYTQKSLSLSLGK
light: QGQSGQGDVNCAIWYSVCTTVPGGGSSGGSISSGLLSGRSDNHGGGSDIQLTQSPSSLSASVGDRVTITCRASESVDSYGISFMNWFQQKPGKAPKLLIYAASNQGSGVPSRFSGSGSGTDFTLTISSMQPEDFATYYCQQSKDVPWTFGQGTKLEIKRTVAAPSVFIFPPSDEQLKSGTASVVCLLNNFYPREAKVQWKVDNALQSGNSQESVTEQDSKDSTYSLSSTLTLSKADYEKHKVYACEVTHQGLSSPVTKSFNRGEC
notes: also called PD02 (A1.4)
ME (masking efficiency, Kd of the activatable antibody divided by Kd of the parental antibody) [5]: 18

B11: PD-1 1.4 PD009 2001 (antibody, human IgG4 S228P, kappa)
heavy: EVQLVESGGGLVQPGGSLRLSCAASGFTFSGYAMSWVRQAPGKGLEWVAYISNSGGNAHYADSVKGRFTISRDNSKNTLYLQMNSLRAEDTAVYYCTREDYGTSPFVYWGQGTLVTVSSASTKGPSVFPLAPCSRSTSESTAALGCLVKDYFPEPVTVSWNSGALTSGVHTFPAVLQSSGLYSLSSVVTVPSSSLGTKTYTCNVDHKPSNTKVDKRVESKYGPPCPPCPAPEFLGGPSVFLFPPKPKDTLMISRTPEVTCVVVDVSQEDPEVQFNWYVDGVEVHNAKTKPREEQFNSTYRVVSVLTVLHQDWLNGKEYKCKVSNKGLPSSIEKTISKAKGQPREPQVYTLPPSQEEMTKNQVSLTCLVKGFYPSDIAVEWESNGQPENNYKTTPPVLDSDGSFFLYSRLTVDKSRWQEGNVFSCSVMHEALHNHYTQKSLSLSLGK
light: QGQSGQGAPRTCYTYQCSSFYTGGGSSGGSISSGLLSGRSDNHGGGSDIQLTQSPSSLSASVGDRVTITCRASESVDSYGISFMNWFQQKPGKAPKLLIYAASNQGSGVPSRFSGSGSGTDFTLTISSMQPEDFATYYCQQSKDVPWTFGQGTKLEIKRTVAAPSVFIFPPSDEQLKSGTASVVCLLNNFYPREAKVQWKVDNALQSGNSQESVTEQDSKDSTYSLSSTLTLSKADYEKHKVYACEVTHQGLSSPVTKSFNRGEC
notes: also called PD09 (A1.4)
ME (masking efficiency, Kd of the activatable antibody divided by Kd of the parental antibody) [5]: 2

B12: A1.0 (antibody, human IgG4 S228P, kappa, V domains shown)
VH: B13 VH with N31G, G54S, D57N, T58A, L64V, V70I, A97T, N100D
VL: B13 VL with V13A, A19V
notes: as for B4
binding result [1]: binds

B17: PD-1 1.4 PD001 2001 (antibody, human IgG4 S228P, kappa)
heavy: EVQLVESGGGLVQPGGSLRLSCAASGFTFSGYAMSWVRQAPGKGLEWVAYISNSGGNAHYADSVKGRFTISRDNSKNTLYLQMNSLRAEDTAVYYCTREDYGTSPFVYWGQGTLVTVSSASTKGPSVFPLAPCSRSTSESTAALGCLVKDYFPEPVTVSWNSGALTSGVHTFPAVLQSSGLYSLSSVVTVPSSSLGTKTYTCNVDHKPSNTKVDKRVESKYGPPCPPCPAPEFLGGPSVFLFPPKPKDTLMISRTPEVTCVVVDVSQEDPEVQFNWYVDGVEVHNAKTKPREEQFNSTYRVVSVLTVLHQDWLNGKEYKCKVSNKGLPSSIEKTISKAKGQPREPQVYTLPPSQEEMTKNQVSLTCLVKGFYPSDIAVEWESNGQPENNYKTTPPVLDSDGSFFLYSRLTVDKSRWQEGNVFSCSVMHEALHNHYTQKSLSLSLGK
light: QGQSGQGAMSGCSWSAFCPYLAGGGSSGGSISSGLLSGRSDNHGGGSDIQLTQSPSSLSASVGDRVTITCRASESVDSYGISFMNWFQQKPGKAPKLLIYAASNQGSGVPSRFSGSGSGTDFTLTISSMQPEDFATYYCQQSKDVPWTFGQGTKLEIKRTVAAPSVFIFPPSDEQLKSGTASVVCLLNNFYPREAKVQWKVDNALQSGNSQESVTEQDSKDSTYSLSSTLTLSKADYEKHKVYACEVTHQGLSSPVTKSFNRGEC
notes: hIgG4 S228P/hK; also called PD01 (A1.4)
ME (masking efficiency, Kd of the activatable antibody divided by Kd of the parental antibody) [5]: 25

B18: PD-1 1.5 PD019 2001 (antibody, human IgG4 S228P, kappa)
heavy: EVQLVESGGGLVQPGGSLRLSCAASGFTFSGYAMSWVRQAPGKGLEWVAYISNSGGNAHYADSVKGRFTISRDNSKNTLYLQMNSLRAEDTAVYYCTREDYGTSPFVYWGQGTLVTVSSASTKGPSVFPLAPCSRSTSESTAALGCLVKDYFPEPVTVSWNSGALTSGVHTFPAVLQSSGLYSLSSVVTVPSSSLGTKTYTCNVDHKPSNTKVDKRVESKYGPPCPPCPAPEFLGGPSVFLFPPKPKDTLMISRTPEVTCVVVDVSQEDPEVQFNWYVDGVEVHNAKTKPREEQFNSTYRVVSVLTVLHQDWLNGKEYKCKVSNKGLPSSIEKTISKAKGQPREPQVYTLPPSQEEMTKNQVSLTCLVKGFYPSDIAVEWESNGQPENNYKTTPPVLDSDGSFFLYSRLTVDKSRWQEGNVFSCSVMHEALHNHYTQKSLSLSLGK
light: QGQSGQGPCDQNPYFYPYVCHAGGGSSGGSISSGLLSGRSDNHGGGSDIQLTQSPSSLSASVGDRVTITCRASESVDAYGISFMNWFQQKPGKAPKLLIYAASNQGSGVPSRFSGSGSGTDFTLTISSMQPEDFATYYCQQSKDVPWTFGQGTKLEIKRTVAAPSVFIFPPSDEQLKSGTASVVCLLNNFYPREAKVQWKVDNALQSGNSQESVTEQDSKDSTYSLSSTLTLSKADYEKHKVYACEVTHQGLSSPVTKSFNRGEC
notes: also called PD-19
Kd [7]: 93 nM
ME (masking efficiency, Kd of the activatable antibody divided by Kd of the parental antibody) [8]: 30
Masking Efficiency [9]: 52
